B1: minF1; a variant is named by its letters at N, in order (parent)
chain: GAGACCGCAACTGAAAAGTTGTTNNNNAANNNNGGNTNNATTTCTGCACGTAGAAGCAAAAGGC

Variants of: B1
Assay: fraction ligated after 30 min (ligated reads / total reads); higher = more ligase activity
Settings: with F1*subA RNA substrate (template-directed ligation), 42 °C
Description: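 Chip-synthesised pool of minF1 ligase ribozyme variants (single and double substitutions, single to quadruple deletions, bulge and P2 designed variants) was transcribed with T7 and reacted as a pool with excess substrate F1*subA for 30 min at 42 C in 50 mM EPPS pH 8.5, 25 mM MgCl2. Ligated and unligated RNAs were separated by PAGE, barcoded by RT and deep sequenced; fraction ligated = ligated reads / total reads, relative activity = FL / FL of wild-type minF1 (0.76); sequencing FL correlated with PAGE (R2 = 0.98). Sequences are the DNA template of the ribozyme.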

| Variant | fraction ligated |
| --- | --- |
| GAGACCGCAACTGAAAAGTTGTATCAGAAAGTGGGTTGAATTTCTGCACGTAGAAGCAAAAGGC | 0.00281 |
| GAGACCGCAACTGAAAAGTTGTTTCAGAAAGGATGGGTTGTTTCTGCACGTAGAAGCAAAAGGC | 0.000453 |
| GAGACCGCAACTGAAAAGTTGTATCAGAAAGGTGGGTTGATTTCTGCACGTAGAAGCAAAAGGC | 0.00531 |
| GAGACCGCAACTGAAAAGTTGTTTCAGAAAGGAGGTTGAATTTCTGCACGTAGAAGCAAAAGGC | 0.00215 |
| GAGACCGCAACTGAAAAGTTGTTACAGAAATGAGGTTGAATTTCTGCACGTAGAAGCAAAAGGC | 0.00115 |
| GAGACCGCAACTGAAAAGTTGTATCAGAAATAGGGTTGAATTTCTGCACGTAGAAGCAAAAGGC | 0.00511 |
| GAGACCGCAACTGAAAAGTTGTATCAGAAATGATGGTTGATTTCTGCACGTAGAAGCAAAAGGC | 0.00649 |
| GAGACCGCAACTGAAAAGTTGTTTCAGAAATATGGGTTGATTTCTGCACGTAGAAGCAAAAGGC | 0.00722 |
| GAGACCGCAACTGAAAAGTTGTTTCAGAAATATGGGTTAATTTCTGCACGTAGAAGCAAAAGGC | 0.00271 |
| GAGACCGCAACTGAAAAGTTGTTACAGAAAGTGGGTTGAATTTCTGCACGTAGAAGCAAAAGGC | 0.00284 |
| GAGACCGCAACTGAAAAGTTGTATCAGAAATGAGGGTTGATTTCTGCACGTAGAAGCAAAAGGC | 0.00683 |
| GAGACCGCAACTGAAAAGTTGTATCAGAAAGGATGGTTGATTTCTGCACGTAGAAGCAAAAGGC | 0.00498 |
| GAGACCGCAACTGAAAAGTTGTTACAGAAATATGGGTTAATTTCTGCACGTAGAAGCAAAAGGC | 0.00255 |
| GAGACCGCAACTGAAAAGTTGTTACAGAAATATGGGTTGATTTCTGCACGTAGAAGCAAAAGGC | 0.00478 |
| GAGACCGCAACTGAAAAGTTGTATCAGAAAGGGGGTTGAATTTCTGCACGTAGAAGCAAAAGGC | 0.004 |
| GAGACCGCAACTGAAAAGTTGTTTCAGAAATGAGGTTGAATTTCTGCACGTAGAAGCAAAAGGC | 0.00144 |
| GAGACCGCAACTGAAAAGTTGTTACAGAAATGATGGTTAATTTCTGCACGTAGAAGCAAAAGGC | 0.00197 |
| GAGACCGCAACTGAAAAGTTGTATCAGAAATATGGGTTGATTTCTGCACGTAGAAGCAAAAGGC | 0.00384 |
| GAGACCGCAACTGAAAAGTTGTTTCAGAAAGGATGGTTGATTTCTGCACGTAGAAGCAAAAGGC | 0.00594 |
| GAGACCGCAACTGAAAAGTTGTTACAGAAATGAGGGTTGATTTCTGCACGTAGAAGCAAAAGGC | 0.00387 |
| GAGACCGCAACTGAAAAGTTGTTACAGAAATGAGGGTTAATTTCTGCACGTAGAAGCAAAAGGC | 0.00413 |

| Variant | fraction ligated |
| --- | --- |
| GAGACCGCAACTGAAAAGTTGTTTCAGAAATGGTGGTTAATTTCTGCACGTAGAAGCAAAAGGC | 0.00105 |
| GAGACCGCAACTGAAAAGTTGTTTCAGAAATGGAGGTTAATTTCTGCACGTAGAAGCAAAAGGC | 0.00212 |
| GAGACCGCAACTGAAAAGTTGTTTCAGAAAGGATGGTTAATTTCTGCACGTAGAAGCAAAAGGC | 0.00236 |
| GAGACCGCAACTGAAAAGTTGTTACAGAAAGGAGGGTTGATTTCTGCACGTAGAAGCAAAAGGC | 0.00401 |
| GAGACCGCAACTGAAAAGTTGTTACAGAAAGGAGGGTTAATTTCTGCACGTAGAAGCAAAAGGC | 0.0028 |
| GAGACCGCAACTGAAAAGTTGTTACAGAAATATGGTTGAATTTCTGCACGTAGAAGCAAAAGGC | 0.0012 |
| GAGACCGCAACTGAAAAGTTGTATCAGAAATGGAGGTTAATTTCTGCACGTAGAAGCAAAAGGC | 0.0017 |
| GAGACCGCAACTGAAAAGTTGTATCAGAAATGGTGGTTAATTTCTGCACGTAGAAGCAAAAGGC | 0.00312 |
| GAGACCGCAACTGAAAAGTTGTATCAGAAAGGTGGGTTAATTTCTGCACGTAGAAGCAAAAGGC | 0.00248 |
| GAGACCGCAACTGAAAAGTTGTTTCAGAAAGGTGGTTGAATTTCTGCACGTAGAAGCAAAAGGC | 0.00136 |
| GAGACCGCAACTGAAAAGTTGTTTCAGAAATAGGGTTGAATTTCTGCACGTAGAAGCAAAAGGC | 0.00299 |
| GAGACCGCAACTGAAAAGTTGTTTCAGAAATGGGGGTTAATTTCTGCACGTAGAAGCAAAAGGC | 0.000871 |
| GAGACCGCAACTGAAAAGTTGTTTCAGAAATGGGGGTTGATTTCTGCACGTAGAAGCAAAAGGC | 0.005 |
| GAGACCGCAACTGAAAAGTTGTTACAGAAAGGATGGTTAATTTCTGCACGTAGAAGCAAAAGGC | 0.000671 |
| GAGACCGCAACTGAAAAGTTGTTACAGAAAGGGGGTTGAATTTCTGCACGTAGAAGCAAAAGGC | 0.00282 |
| GAGACCGCAACTGAAAAGTTGTATCAGAAAGGAGGTTGAATTTCTGCACGTAGAAGCAAAAGGC | 0.00378 |
| GAGACCGCAACTGAAAAGTTGTATCAGAAATGATGGGTTATTTCTGCACGTAGAAGCAAAAGGC | 0.00034 |
| GAGACCGCAACTGAAAAGTTGTTTCAGAAATGATGGGTTATTTCTGCACGTAGAAGCAAAAGGC | 0.0017 |
| GAGACCGCAACTGAAAAGTTGTATCAGAAATGATGGTTAATTTCTGCACGTAGAAGCAAAAGGC | 0.00285 |
| GAGACCGCAACTGAAAAGTTGTTACAGAAAGGATGGGTTGTTTCTGCACGTAGAAGCAAAAGGC | 0.00205 |
| GAGACCGCAACTGAAAAGTTGTTACAGAAATGATGGGTTGTTTCTGCACGTAGAAGCAAAAGGC | 0.00147 |

— the supplement of paper PMC6755084
